Where two headings read alike, the source gives them in different places.
Experiments:
TGF-β2 [1] = target: T1, TGF-β2 (UniProt P61812); experiment: SPR; cycle 10, TGF-B2
T1 sequence (looked up): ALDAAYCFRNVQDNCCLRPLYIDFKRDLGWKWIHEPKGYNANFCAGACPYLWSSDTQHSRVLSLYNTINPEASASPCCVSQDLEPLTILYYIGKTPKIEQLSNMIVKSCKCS

TGF-β1 [2] = target: TGF-β1 (UniProt P01137); experiment: SPR; cycle 14, TGF-B1
TGF-β2 [3] = target: T1, TGF-β2; experiment: SPR; cycle 12, TGF-B2
TGF-β1 [4] = target: TGF-β1 (UniProt P01137)
TGF-β1 [5] = target: TGF-β1 (UniProt P01137); experiment: SPR; average of cycles 10, 12, 14, TGF-B1
TGF-β2 [6] = target: T1, TGF-β2
TGF-β3 [7] = target: T2, TGF-β3 (UniProt P10600)
T2 sequence (looked up): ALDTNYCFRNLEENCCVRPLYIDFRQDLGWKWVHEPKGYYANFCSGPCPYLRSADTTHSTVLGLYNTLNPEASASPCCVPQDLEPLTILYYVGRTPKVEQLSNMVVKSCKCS

TGF-β3 [8] = target: T2, TGF-β3; experiment: SPR; cycle 10, TGF-B3
TGF-β2 [9] = target: T1, TGF-β2; experiment: SPR; average of cycles 10, 12, 14, TGF-B2
TGF-β1 [10] = target: TGF-β1 (UniProt P01137); experiment: SPR; cycle 12, TGF-B1
TGF-β2 [11] = target: T1, TGF-β2; experiment: SPR; cycle 14, TGF-B2
TGF-β2 [12] = target: T1, TGF-β2; experiment: cell-based or functional assay; design: unit not given beside the values
TGF-β3 [13] = target: T2, TGF-β3; experiment: cell-based or functional assay; design: unit not given beside the values
TGF-β1 [14] = target: TGF-β1 (UniProt P01137); experiment: cell-based or functional assay; design: unit not given beside the values
TGF-β3 [15] = target: T2, TGF-β3; experiment: SPR; average of cycles 10, 12, 14, TGF-B3
TGF-β2 [16] = target: T1, TGF-β2; experiment: cell-based or functional assay
TGF-β3 [17] = target: T2, TGF-β3; experiment: cell-based or functional assay
TGF-β1 [18] = target: TGF-β1 (UniProt P01137); experiment: cell-based or functional assay
TGF-β1 [19] = target: TGF-β1 (UniProt P01137); experiment: SPR; cycle 10, TGF-B1
TGF-β3 [20] = target: T2, TGF-β3; experiment: SPR; cycle 14, TGF-B3
TGF-β2 [21] = target: T1, TGF-β2; remark: listed apart in the source
TGF-β3 [22] = target: T2, TGF-β3; experiment: SPR; cycle 12, TGF-B3
TGF-β3 [23] = target: T2, TGF-β3; remark: listed apart in the source
TGF-β1 [24] = target: TGF-β1 (UniProt P01137); remark: listed apart in the source

Sequence of UniProt P01137 (P01137 279-390 limits assumed): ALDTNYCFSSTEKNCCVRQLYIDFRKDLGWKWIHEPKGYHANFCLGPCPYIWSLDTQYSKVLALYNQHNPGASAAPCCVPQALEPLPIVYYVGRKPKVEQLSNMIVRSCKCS

B1: 1D11 (PCT-001), mouse monoclonal anti-TGF-β antibody (antibody, from another filing, V domains shown)
VH: QVQLQQSGPELVRPGASVKLSCKASGYIFITYWMNWVKQRPGQGLEWIGQIFPASGSTNYNEMFEGKATLTVDTSSSTAYMQLSSLTSEDSAVYYCARGDGNYALDAMDYWGQGTSVTVSS
VL: DIVLTQSPASLAVSLGQRATISCRASESVDSYGNSFMHWYQQKSGQPPKLLIYLASNLESGVPARFSGSGSRTDFTLTIDPVEADDAATYYCQQNNEDPLTFGAGTKLEIK
**Q.** Which results are given for B1?
**A.** Kd (TGF-β2 [1]): 0.0832 nM; koff (TGF-β2 [1]): 5.17e-05 s⁻¹; kon (TGF-β2 [1]): 621000 M⁻¹ s⁻¹; Kd (TGF-β1 [2]): 0.0733 nM; koff (TGF-β1 [2]): 3.78e-05 s⁻¹; kon (TGF-β1 [2]): 515000 M⁻¹ s⁻¹; Kd (TGF-β2 [3]): 0.082 nM; koff (TGF-β2 [3]): 5.54e-05 s⁻¹; kon (TGF-β2 [3]): 675000 M⁻¹ s⁻¹; IC50 (read off the curve) (TGF-β1 [4]): 0.1 nM; Kd (TGF-β1 [5]): 0.0873 nM; koff (TGF-β1 [5]): 4.06e-05 s⁻¹; kon (TGF-β1 [5]): 470000 M⁻¹ s⁻¹; IC50 (read off the curve) (TGF-β2 [6]): 0.2 nM; IC50 (read off the curve) (TGF-β3 [7]): 0.02 nM; Kd (TGF-β3 [8]): 0.0108 nM; koff (TGF-β3 [8]): 2.9e-06 s⁻¹; kon (TGF-β3 [8]): 268000 M⁻¹ s⁻¹; Kd (TGF-β2 [9]): 0.0792 nM; koff (TGF-β2 [9]): 5.23e-05 s⁻¹; kon (TGF-β2 [9]): 662000 M⁻¹ s⁻¹; Kd (TGF-β1 [10]): 0.0873 nM; koff (TGF-β1 [10]): 4.18e-05 s⁻¹; kon (TGF-β1 [10]): 479000 M⁻¹ s⁻¹; Kd (TGF-β2 [11]): 0.0723 nM; koff (TGF-β2 [11]): 4.98e-05 s⁻¹; kon (TGF-β2 [11]): 690000 M⁻¹ s⁻¹; IC50 for neutralization of TGF-β (TGF-β2 [12]): 0.492; IC50 for neutralization of TGF-β (TGF-β3 [13]): 0.0547; IC50 for neutralization of TGF-β (TGF-β1 [14]): 0.0722; Kd (TGF-β3 [15]): 0.0116 nM; koff (TGF-β3 [15]): 3.57e-06 s⁻¹; kon (TGF-β3 [15]): 310000 M⁻¹ s⁻¹; EC50, TGF-β isoform neutralization (TGF-β2 [16]): 0.591 nM; EC50 for neutralization of TGF-β (TGF-β2 [16]): 382 picomol/L; EC50, TGF-β isoform neutralization (TGF-β3 [17]): 0.225 nM; EC50 for neutralization of TGF-β (TGF-β3 [17]): 19 picomol/L; EC50, TGF-β isoform neutralization (TGF-β1 [18]): 0.0478 nM; EC50 for neutralization of TGF-β (TGF-β1 [18]): 164 picomol/L; Kd (TGF-β1 [19]): 0.102 nM; koff (TGF-β1 [19]): 4.23e-05 s⁻¹; kon (TGF-β1 [19]): 416000 M⁻¹ s⁻¹; Kd (TGF-β3 [20]): 0.00793 nM; koff (TGF-β3 [20]): 2.75e-06 s⁻¹; kon (TGF-β3 [20]): 346000 M⁻¹ s⁻¹; IC50 (read off the curve) (TGF-β2 [21]): 0.4 nM; Kd (TGF-β3 [22]): 0.016 nM; koff (TGF-β3 [22]): 5.06e-06 s⁻¹; kon (TGF-β3 [22]): 316000 M⁻¹ s⁻¹; IC50 (read off the curve) (TGF-β3 [23]): 0.03 nM; IC50 (read off the curve) (TGF-β1 [24]): 0.2 nM

Source: patent publication US20190248881A1
